Experimental data from patent US20220340682A1 (Sanofi, published 2022).
Changes are numbered by the printed parent chain. Several values for one entry are separate records, joined by “and”; a condition that tells them apart may be missing. Identical values can stand only once. One block for each binder: values may come before it.

How the values were obtained:
[1] = target: T1, human CEACAM5 expressed on the surface of tumor cells (human, UniProt P06731 35-685); assay: flow cytometry on CR-IGR-034P primary colon tumor cells
T1 construct: Endogenous CEACAM5 of human tumor cells; also called hCEACAM5 on MKN45 cells; CEACAM5 on CR-IGR-034P primary colon tumor cells
T1 sequence: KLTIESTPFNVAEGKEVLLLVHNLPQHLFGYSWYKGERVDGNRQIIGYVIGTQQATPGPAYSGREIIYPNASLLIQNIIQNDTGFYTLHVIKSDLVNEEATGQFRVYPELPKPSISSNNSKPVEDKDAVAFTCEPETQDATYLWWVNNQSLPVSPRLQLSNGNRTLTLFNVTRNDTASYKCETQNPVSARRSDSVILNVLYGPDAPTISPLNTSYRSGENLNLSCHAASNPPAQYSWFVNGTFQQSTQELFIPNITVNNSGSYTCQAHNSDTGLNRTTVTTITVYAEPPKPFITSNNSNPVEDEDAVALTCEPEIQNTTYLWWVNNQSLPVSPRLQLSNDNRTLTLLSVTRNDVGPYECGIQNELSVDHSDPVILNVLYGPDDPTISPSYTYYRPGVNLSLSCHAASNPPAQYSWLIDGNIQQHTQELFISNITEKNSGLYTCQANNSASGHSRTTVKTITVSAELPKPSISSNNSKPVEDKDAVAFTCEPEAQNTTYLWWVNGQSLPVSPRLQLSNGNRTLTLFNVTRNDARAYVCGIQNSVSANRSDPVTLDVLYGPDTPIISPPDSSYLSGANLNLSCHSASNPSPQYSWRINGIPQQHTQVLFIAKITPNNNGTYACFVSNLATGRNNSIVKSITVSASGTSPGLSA
Method: Advanced human primary colon tumor CR-IGR-034P (Julien et al., Clin Cancer Res Oct. 1, 2012 18:5314-5328) was obtained from Patient-derived xenograft in mice. Tumor CR-IGR-034P was enzymatically dissociated using collagenase Type IV (Invitrogen; #17104-019) and deoxyribonuclease I (Invitrogen; #18047-019) for 1 h at […], Cell viability was estimated by Viacount application using Guava® easyCyte™ 8HT Flow Cytometry System. […] 100 μL/well of goat anti-mouse IgG conjugated with Alexa647 (Invitrogen; # A2135) or goat anti-human IgG conjugated with Alexa488 (Invitrogen; # A11013) was added for 45 min at 4° C. and washed three times with PBS 1% BSA. The antibody binding was evaluated after centrifugation and resuspension of cells by adding 200 pliwell PBS 1% BSA and read using Guava® easyCyte™ 8HT Flow Cytometry System. Apparent KD and EC50 values were estimated using BIOST@T-BINDING and BIOST@T-SPEED softwares, respectively.

[2] = target: T2, cCEACAM5, M. fascicularis CEACAM5 ECD (35-688) (Macaca fascicularis); assay: ELISA, chimeric mAb
T2 construct: ECD followed by a 24 amino acid extension containing a His-Tag; also called cynomolgus CEACAM5; monkey CEACAM5
T2 chain: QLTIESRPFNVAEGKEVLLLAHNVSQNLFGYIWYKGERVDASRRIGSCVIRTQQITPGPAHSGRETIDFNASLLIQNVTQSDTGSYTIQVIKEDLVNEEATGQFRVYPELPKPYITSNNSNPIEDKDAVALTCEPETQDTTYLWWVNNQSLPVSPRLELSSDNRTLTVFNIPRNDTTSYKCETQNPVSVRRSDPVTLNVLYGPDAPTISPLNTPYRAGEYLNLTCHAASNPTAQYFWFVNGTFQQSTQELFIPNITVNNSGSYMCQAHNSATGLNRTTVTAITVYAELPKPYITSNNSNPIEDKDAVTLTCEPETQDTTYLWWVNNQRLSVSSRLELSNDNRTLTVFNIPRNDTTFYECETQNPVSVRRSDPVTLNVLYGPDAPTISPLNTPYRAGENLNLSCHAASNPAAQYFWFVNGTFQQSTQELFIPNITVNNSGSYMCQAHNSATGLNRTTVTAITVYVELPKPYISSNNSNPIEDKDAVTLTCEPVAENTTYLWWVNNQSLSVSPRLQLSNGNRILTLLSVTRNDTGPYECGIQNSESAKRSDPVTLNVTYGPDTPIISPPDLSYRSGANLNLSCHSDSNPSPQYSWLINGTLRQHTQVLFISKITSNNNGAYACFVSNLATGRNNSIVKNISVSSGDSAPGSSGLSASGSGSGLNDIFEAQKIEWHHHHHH

[3] = target: T3, hCEACAM5, human CEACAM5 ECD (35-685) (human, UniProt P06731 35-685); assay: ELISA, chimeric mAb
T3 construct: produced in HEK293; also called human CEACAM5 protein; human CEACAM5 extracellular domain
T3 sequence: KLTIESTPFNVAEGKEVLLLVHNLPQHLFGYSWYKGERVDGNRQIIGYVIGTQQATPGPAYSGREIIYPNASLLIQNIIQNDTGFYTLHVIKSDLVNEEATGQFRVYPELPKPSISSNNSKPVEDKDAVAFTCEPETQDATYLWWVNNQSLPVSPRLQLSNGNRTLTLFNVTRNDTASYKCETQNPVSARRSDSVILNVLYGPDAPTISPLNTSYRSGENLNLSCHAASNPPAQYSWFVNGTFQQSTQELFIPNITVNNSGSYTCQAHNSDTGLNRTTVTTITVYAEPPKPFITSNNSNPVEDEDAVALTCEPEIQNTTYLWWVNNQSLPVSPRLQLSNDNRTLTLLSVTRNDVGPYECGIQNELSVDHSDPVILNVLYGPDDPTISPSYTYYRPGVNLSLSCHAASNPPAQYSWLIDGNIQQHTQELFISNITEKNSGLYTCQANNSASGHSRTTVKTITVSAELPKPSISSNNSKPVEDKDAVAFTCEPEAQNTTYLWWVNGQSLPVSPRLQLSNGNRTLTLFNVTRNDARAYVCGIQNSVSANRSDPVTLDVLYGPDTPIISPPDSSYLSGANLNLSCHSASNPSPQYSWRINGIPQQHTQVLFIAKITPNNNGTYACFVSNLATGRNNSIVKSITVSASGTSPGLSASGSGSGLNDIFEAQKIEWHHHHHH

EC50 [1]: 1 nM
B1: antibody MAb1 (antibody, IgG1, V domains shown)
VH: EVMLVESGGGLVKPGGSLKLSCAASGFTFSSYAMSWVRQTPEKRLEWVATISSGGSYIYYLDSVKGRFTISRDNAKNTLYLQMSSLRSEDTAMYYCARPAYYGNPAMDYWGQGTSVTVSS
VL: DILMTQSQKFMSTSVGDRVSVTCKASQNVGTNVAWYQQKPGQSPKPLIYSASYRYSGVPDRFTGSGSGTDFTLTISNVQSEDLAEYFCQQYNSYPLYTFGGGTKLEIK

EC50 [1]: 2.8 nM
B2: antibody MAb3 (antibody, IgG1, V domains shown)
VH: EVKLVESGGGLVKPGGSLTLPCAASGFTFSRYAMSWVRQTPEKRLEWVASISSGGDTYYPDSVKGRFTVSRDNARNILFLQMSSLRSEDTGMYYCARVNYYDSSFLDWWGQGTTLTVSS
VL: B1 VL with L3V, K9R, S14L, V15E, P46A, S93N
notes: Murine monoclonal from hybridoma, IgG1, kappa

EC50 [2]: 0.13 nM and 0.17 nM | EC50 [3]: 0.16 nM and 0.14 nM
B3: chMAb2 (antibody, human IgG1, kappa, V domains shown)
VH: EVQLQESGGVLVKPGGSLKLSCAASGFVFSSYDMSWVRQTPEKRLEWVAYISSGGGITYFPDTVQGRFTVSRDNAKNTLYLQMNSLKSEDTAIYYCAAHYFGSSGPFAYWGQGTLVTVSA
VL: DIQMTQSPASLSASVGETVTITCRASENIFSYLAWYQQKQGKSPQLLVYNTKTLAEGVPSRFSGSGSGTQFSLKINSLQPEDFGSYYCQHHYGTPFTFGSGTKLEIKR
notes: Chimeric, human IgG1, Ck isotype; also called MAb2-IgG1; chimeric MAb2

EC50 [1]: 0.2 nM
B4: antibody MAb4 (antibody, IgG1, V domains shown)
VH: EVQLVESGGGLVKPGGSLKLSCAASGFTFSSYDMSWVRQTPEKRLEWVAFISSYGGRTYYADTVKGRFTISRDNAKNTLYLQMSSLKSEDTAMFYCAAHYFGTSGPFAYWGQGTLVTVSA
VL: DIQMTQSPASLSASVGETVTITCRASENIYSYFAWYQQKQGKSPQLLVYNAKILAEGVPSRFSGSGSGTQFSLKINSLQPEDFGTYYCQHHYGIPFTFGSGTKLELK
notes: as for B2

EC50 [1]: 1.4 nM
B5: antibody MAb5 (antibody, IgG1, V domains shown)
VH: ELQLVESGGVLVKPGGSLKLSCAASGFAFSSYDMSWVRQTPEKRLEWVTYINSGGGITYYPDTVKGRFTISRDNARNTLYLQMSSLKSEDTAIYYCTAHYFGSSGPFAYWGQGTLVTVSA
VL: B4 VL with F33L, I53T, A55T, T85S, I94T, L106I
notes: as for B2
